Test results as given in FireProtDB (doi:10.1021/bi00437a058).

B1: Ribonuclease, P00648 (parent)
chain: MMKMEGIALKKRLSWISVCLLVLVSAAGMLFSTAAKTETSSHKAHTEAQVINTFDGVADYLQTYHKLPDNYITKSEAQALGWVASKGNLADVAPGKSIGGDIFSNREGKLPGKSGRTWREADINYTSGFRNSDRILYSSDWLIYKTTDHYQTFTKIR

Variants of: B1
Details: Bacillus amyloliquefaciens, pH 6.3, Fluorescence, structure 1BNI, whole UniProt chain shown
[1] = 25 °C, GdnHCl, MES 450 mM, reversible: yes (100%)
[2] = 25 °C, Urea, MES 450 mM, reversible: yes (100%)
[3] = 48 °C, Thermal, MES 50 mM, reversible: yes (>85%)
[4] = Thermal, MES 50 mM, reversible: yes (>85%)

## I143A
[1]
  ddG of mutation (higher = less stable): 2.72 kcal/mol
  denaturant m value: 4.87 kcal/mol/M
  denaturant midpoint (higher = more stable): 1.26 M
  unfolding free energy: 6.16 kcal/mol
[2]
  ddG of mutation (higher = less stable): 3.13 kcal/mol
  denaturant m value: 2.18 kcal/mol/M
  denaturant midpoint (higher = more stable): 2.89 M
  unfolding free energy: 6.29 kcal/mol
[3]
  ddG of mutation (higher = less stable): 3.2 kcal/mol
[4]
  Tm: 44.9 °C
  change of melting temperature, mutant - wild type (higher = more stable): -9.6 °C
  unfolding enthalpy (van 't Hoff): 112 kcal/mol

## I143V
[1]
  ddG of mutation (higher = less stable): 0.69 kcal/mol
  denaturant m value: 4.64 kcal/mol/M
  denaturant midpoint (higher = more stable): 1.76 M
  unfolding free energy: 8.19 kcal/mol
[2]
  ddG of mutation (higher = less stable): 0.74 kcal/mol
  denaturant m value: 2.11 kcal/mol/M
  denaturant midpoint (higher = more stable): 4.11 M
  unfolding free energy: 8.68 kcal/mol
[4]
  Tm: 51.5 °C
  change of melting temperature, mutant - wild type (higher = more stable): -2.4 °C
  unfolding enthalpy (van 't Hoff): 121 kcal/mol

## I135A
[2]
  ddG of mutation (higher = less stable): 4.08 kcal/mol
  denaturant m value: 2.16 kcal/mol/M
  denaturant midpoint (higher = more stable): 2.47 M
  unfolding free energy: 5.34 kcal/mol
[3]
  ddG of mutation (higher = less stable): 3.9 kcal/mol
[4]
  Tm: 42.7 °C
  change of melting temperature, mutant - wild type (higher = more stable): -11.2 °C
  unfolding enthalpy (van 't Hoff): 106 kcal/mol

## I135V
[2]
  ddG of mutation (higher = less stable): 1.47 kcal/mol
  denaturant m value: 2.06 kcal/mol/M
  denaturant midpoint (higher = more stable): 3.87 M
  unfolding free energy: 7.95 kcal/mol
[4]
  Tm: 51 °C
  change of melting temperature, mutant - wild type (higher = more stable): -2.9 °C
  unfolding enthalpy (van 't Hoff): 117 kcal/mol

## L61A
[2]
  ddG of mutation (higher = less stable): 4.65 kcal/mol
  denaturant m value: 2.08 kcal/mol/M
  denaturant midpoint (higher = more stable): 2.29 M
  unfolding free energy: 4.77 kcal/mol
[3]
  ddG of mutation (higher = less stable): 4.2 kcal/mol
[4]
  Tm: 42 °C
  change of melting temperature, mutant - wild type (higher = more stable): -11.9 °C
  unfolding enthalpy (van 't Hoff): 108 kcal/mol
